Measurements taken from article PMC6275497, “Folding pathway of an Ig domain is conserved on and off the ribosome” (Proceedings of the National Academy of Sciences of the …, 2018).

What was measured:
ribosomal protein uL29 = ribosomal protein uL29 (E. coli (endogenous in E. coli KC6), UniProt P0A7M6 1-63); assay: cryo-EM structure; TnaC-stalled I27[L = 35] ribosome-nascent chain complexes purified from E. coli by the His tag; average resolution 3.2 Å, I27 density ~4.5- to 9-Å; rigid-body fit of PDB 1TIT and PDB 4UY8, uL24 β hairpin remodeled; conditions: both partners purified
ribosomal protein uL24 = ribosomal protein uL24 (E. coli (endogenous in E. coli KC6), UniProt P60624 1-104); assay: as above; conditions: both partners purified

binding result (ribosomal protein uL29): binds | binding result (ribosomal protein uL24): binds
B1: N-terminally His-tagged I27-TnaC[L = 35] nascent chain (titin I27 domain, linker, TnaC arrest peptide), stalled on the ribosome (other)
chain: MDMGHHHHHHHHDYDIPTTLEVLFQGPGTLIEVEKPLYGVEVFVGETAHFEIELSEPDVHGQWKLKGQPLAASPDCEIIEDGKKHILILHNCQLGMTGEVSFQAANTKSAANLKVKELSGSGSGSGGPNILHISVTSKWFNIDNKIVDHRP
modifications: nascent chain held as peptidyl-tRNA on the stalled ribosome
notes: N-terminal leader of the construct as printed; it holds the 8X His tag itself; titin I27 Ig domain, 89-residue construct; numbers count on: the I27 domain itself (L1-L89); linker between I27 and the TnaC arrest peptide; TnaC arrest peptide; also called I27[L = 35]; not shown: His8, N-terminal, kept
